These results are taken from PMC7794846.

The target in test [1] is LHCGR E270V mutant (human) (UniProt P22888).
The target of test [2] is LHCGR A57T mutant (human) (UniProt P22888).
Test [3] has as its target LHCGR N35D + V37A mutant (human) (UniProt P22888).
The target of test [4] is LHCGR I83S mutant (human) (UniProt P22888).
In test [5] the target is LHCGR K225S + T226I mutant (human) (UniProt P22888).
The target in test [6] is LHCGR T48R mutant (human) (UniProt P22888).
Test [7] deals with human luteinizing hormone (LH)/chorionic gonadotropin (hCG) receptor (LHCGR), wild type (human) (UniProt P22888).
The target in test [8] is LHCGR R247T mutant (human) (UniProt P22888).
For test [9], the target named is LHCGR S149F mutant (human) (UniProt P22888).
Test [10] addresses LHCGR E270V mutant (human) (UniProt P22888). This is another data set of the same source.
The target of test [11] is LHCGR A57T mutant (human) (UniProt P22888). This is another data set of the same source.
Test [12] concerns the target LHCGR N35D + V37A mutant (human) (UniProt P22888). The source holds these as a separate data set.
Test [13] deals with LHCGR I83S mutant (human) (UniProt P22888). The source holds these as a separate data set.
In test [14] the target is LHCGR K225S + T226I mutant (human) (UniProt P22888). The source holds these as a separate data set.
In test [15] the target is LHCGR T48R mutant (human) (UniProt P22888). This is another data set of the same source.
The target of test [16] is human luteinizing hormone (LH)/chorionic gonadotropin (hCG) receptor (LHCGR), wild type (human) (UniProt P22888). This is another data set of the same source.
In test [17] the target is LHCGR R247T mutant (human) (UniProt P22888). The source holds these as a separate data set.
In test [18] the target is LHCGR S149F mutant (human) (UniProt P22888). The source holds these as a separate data set.

Take “recombinant human luteinizing hormone (LH) (from UniProt P01215 25-116; P01229 21-141) (ligand)”: the LH AUC of the pERK1/2 activation kinetics, BRET (REV biosensor) in transfected HEK293 cells, 100 pM LH (relative units) was determined as 10.9 in test [1]; 10.9 in test [2]; 5.48 in [3]; 8.03 in test [4]; 11.4 in test [5]; 12.3 in [6]. Further, the LH AUC of the pERK1/2 activation kinetics, BRET (REV biosensor) in transfected HEK293 cells, 100 pM LH (relative units) was determined as 13.9 in test [7], 10.5 in test [8] and 10.4 in [9]. Moreover, the LH EC50 (pM) of cAMP increase, BRET (CAMYEL biosensor) in transfected HEK293 cells, 1 pM–100 nM LH, 30 min amounted to 2810 pM in [10]; 703 pM in test [11]; 595 pM in test [12]; 712 pM in test [13]; 698 pM in test [14]; 1210 pM in test [15]. The LH EC50 (pM) of cAMP increase, BRET (CAMYEL biosensor) in transfected HEK293 cells, 1 pM–100 nM LH, 30 min is 1110 pM in test [16], 556 pM in [17] and 756 pM in test [18].

As to “recombinant human chorionic gonadotropin (hCG) (from UniProt P01215 25-116; P0DN86 21-165) (ligand)”, the hCG AUC of the pERK1/2 activation kinetics, BRET (REV biosensor) in transfected HEK293 cells, 100 pM hCG (relative units) in test [1] was found to be 7.18; in [2], 20.5; in test [3] it was 8.19; in test [4], 6.65; in [5], 9.47; in test [6] it was 13.4. Besides, the hCG AUC of the pERK1/2 activation kinetics, BRET (REV biosensor) in transfected HEK293 cells, 100 pM hCG (relative units) turned out to be 7.98 in [7], 15.4 in test [8] and 13.9 in test [9]. Further, the hCG EC50 (pM) of cAMP increase, BRET (CAMYEL biosensor) in transfected HEK293 cells, 1 pM–100 nM hCG, 30 min in test [10] is 248 pM; in test [11] it was 153 pM; in test [12], 94.5 pM; in test [13] it was 127 pM; in [14], 194 pM; in test [15], 130 pM. In addition, the results for the hCG EC50 (pM) of cAMP increase, BRET (CAMYEL biosensor) in transfected HEK293 cells, 1 pM–100 nM hCG, 30 min in test [16], in test [17] and in [18] were 143 pM, 386 pM and 111 pM, respectively.
